Experiments:
[1] = biological target: FUS-mEmerald (UniProt P35637)
[2] = biological target: FUS-mEmerald (UniProt P35637); test: tie line gradient analysis (FUS dilute phase concentration by confocal detection in a microfluidic flow cell); mEmerald-tagged FUS; DNAJB6 varied 0-4 µM; FUS dilute phase concentration read after phase separation

Sequence of UniProt P35637 (P35637 whole entry): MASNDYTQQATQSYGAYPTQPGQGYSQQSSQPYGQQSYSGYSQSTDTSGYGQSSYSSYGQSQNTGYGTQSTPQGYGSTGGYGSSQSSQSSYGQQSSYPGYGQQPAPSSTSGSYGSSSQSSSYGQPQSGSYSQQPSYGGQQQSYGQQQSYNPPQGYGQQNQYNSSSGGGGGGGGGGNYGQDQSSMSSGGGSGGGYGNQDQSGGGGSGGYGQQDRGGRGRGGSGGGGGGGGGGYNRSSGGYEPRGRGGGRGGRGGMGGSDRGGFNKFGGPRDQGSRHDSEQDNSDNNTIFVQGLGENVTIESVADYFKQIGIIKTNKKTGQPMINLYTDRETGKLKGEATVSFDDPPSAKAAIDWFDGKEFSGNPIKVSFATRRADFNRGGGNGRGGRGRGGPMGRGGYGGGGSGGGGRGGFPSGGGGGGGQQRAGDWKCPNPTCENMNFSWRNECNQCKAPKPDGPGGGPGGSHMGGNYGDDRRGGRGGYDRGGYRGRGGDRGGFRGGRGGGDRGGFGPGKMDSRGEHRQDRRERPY

Young's modulus of FUS + DNAJB6 condensates by AFM, 2 h (~31 kPa) to 48 h; FUS-only condensates rise from ~9 kPa to ~25,000 kPa [1]: 40 kPa
tie line gradient (µM DNAJB6 / µM FUS) [2]: 3
Substance: purified recombinant human DNAJB6 (from UniProt O75190 1-326) (natural protein)

— PMC12638947
